Key:
[1] = target: T1, mouse CD163 1-5 LKIHDK-->VKVQEE, Y60R mutant (Mus musculus, UniProt Q2VLH6, D69E/H68Q/I67V/K70E/L65V/Y111R); assay: Western blotting of mouse CD163 and knock in mutant; format: binding
T1 construct: A mutant (LKIHDK-->VKVQEE, Y60R) in domain 1 of mouse CD163 1-5; host or cells: Lenti-X 293T, transient; captured from supernatant on Ni-NTA
T1 sequence (Q2VLH6 39-577 L65V/I67V/H68Q/D69E/K70E/Y111R): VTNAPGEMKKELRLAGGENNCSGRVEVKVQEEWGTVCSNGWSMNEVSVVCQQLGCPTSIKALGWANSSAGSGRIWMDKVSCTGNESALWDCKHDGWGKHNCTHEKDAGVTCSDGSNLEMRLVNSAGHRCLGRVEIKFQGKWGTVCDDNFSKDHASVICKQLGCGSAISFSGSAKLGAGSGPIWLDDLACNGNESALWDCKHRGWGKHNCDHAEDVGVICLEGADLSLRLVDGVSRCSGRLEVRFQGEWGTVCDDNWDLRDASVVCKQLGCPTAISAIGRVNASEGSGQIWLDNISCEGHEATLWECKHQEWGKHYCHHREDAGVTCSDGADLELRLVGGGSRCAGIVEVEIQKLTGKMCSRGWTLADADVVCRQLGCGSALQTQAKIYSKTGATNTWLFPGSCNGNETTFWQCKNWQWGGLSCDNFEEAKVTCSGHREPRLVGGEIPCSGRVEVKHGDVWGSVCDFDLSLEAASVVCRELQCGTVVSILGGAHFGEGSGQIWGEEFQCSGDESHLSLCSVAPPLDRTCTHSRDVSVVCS
Experimental: CD163 domain 1-5 was used for expression of mouse CD163 domain 1-5/V5/His. A mutant (LKIHDK-->VKVQEE, Y60R) in domain 1 of mouse CD163 1-5 was ordered as midiprep at GenScript (Piscataway, N.J., USA). Sequences DNA and protein of mutants are show below (mutant only domain 1).
(§1) The mouse CD163 1-5 and the mouse CD163 domain 1 mutant were expressed transient in Lenti-X 293T cells as follows: 1.5 μg of the DNA was diluted in OptiCHOPro SFM (8 mM L-glutamine) to a total volume of 50 μl The DNA was gently mixed with 50 μl of OptiCHOPro SFM containing 1.5 μl Freestyle MAX transfection reagent (Invitrogen, Taastrup, Denmark). After 10 min of incubation at room temperature the complexes were added to 1×10^6 cells in 1 ml. Three days later, the cell supernatants were harvested by centrifugation.
(§2) Tris pH 8 buffer, and cell culture supernatants were added 60 μl of Ni-NTA His-bind resin slurry. After 1 hour shaking at 4° C. the supernatants were aspired and each of the purifications were eluted with 90 μl 50 mM Tris pH 8, 25 mM EDTA buffer.
(§3) 90 μl of each of the eluates were added 30 μl of 4×LDS sample buffer. 20 μl samples of each supernatant and 8 μl SeeBlue plus2 prestained marker were loaded on NuPage 4-12% Bis-Tris-Gels (Invitrogen, Taastrup, Denmark) and the SDS-PAGEs were run with MOPS running buffer according to instructions of the manufacturer (200 V constant for 50 min). […]

CD163 = CD163 (Homo sapiens, UniProt Q86VB7); assay: Competition of binding to Mac2-158 epitope (SPR on Mac2-158 saturated CD163 chip); conditions: 2 mM free calcium buffer, mAb 5 μg/ml
Experimental: To evaluate if there is competition in the binding of a range of mAbs to CD163 we first saturated the CD163-chip with Mac2-158 by injecting 50 μL of 50 μg/ml Mac2-158 and subsequently injecting relevant mAbs in 5 μg/ml. The binding buffer was CaHBS 10 mM Hepes, 150 mM NaCl, 3.0 mM CaCl2, 1.0 mM EGTA, and 0.005% Tween 20, pH 7.4.

human CD163 wt = target: T2, human CD163 wt (Homo sapiens, UniProt Q86VB7); assay: Western blotting of human CD163 and knock out mutants; format: binding
T2 construct: a pcDNA5-FRT-humanCD163 plasmid harboring the full length human CD163 cDNA; expressed in transfected cells; host or cells: HEK 293, transient
Experimental: Each cell pellet was added 1 ml lysis buffer (10 mM Tris pH 8, 140 mM NaCl, 15 mM MgSO4, 1% Triton X-100) and incubated for 15 min at 4 °C with rotation. After centrifugation for 30 min at 6000 rpm the supernatants were sterile filtered.
90 μl of each of the supernatants were added 30 μl of 4×LDS sample buffer. 3×20 μl samples of each supernatant and 8 μl SeeBlue plus2 prestained marker were loaded on NuPage 4-12% Bis-Tris-Gels (Invitrogen, Taastrup, Denmark) and the SDS-PAGEs were run with MOPS running buffer according to instructions of the manufacturer (200 V constant for 50 min). Blotting to PVDF membranes (Invitrogen, Taastrup, Denmark) was done on an iBLOT device according to instructions of the manufacturer. After blotting the membranes were washed briefly in 1×PBS 0.1% Tween and blocked for 30 min in 1×PBS 2% Tween at room temperature with shaking. After blocking the membranes were washed 3×5 min in 1×PBS 0.1% Tween and incubated 1 hour with: (1) 10 ml 1 μg/ml polyclonal rabbit anti-human CD163; (2) 10 ml 1 μg/ml Mac2-158; (3) 10 ml 1:500 KN2/NRY-HRP all diluted in 1×PBS 0.1% Tween. The membranes were washed with 3×5 min 1×PBS 0.1% Tween again and incubated with: (1) 10 ml Goat anti-rabbit-HRP 1:1000 (AbD Serotec, Oxford, UK); or (2) 10 ml Goat anti-mouse-HRP 1:1000 (Dako, Glostrup, Denmark) for 1 hour. […]

mouse CD163 1-5 wt = target: T3, mouse CD163 1-5 wt (Mus musculus, UniProt Q2VLH6); assay: Western blotting of mouse CD163 and knock in mutant; format: binding
T3 construct: CD163 domain 1-5 was used for expression of mouse CD163 domain 1-5/V5/His; made in house; host or cells: Lenti-X 293T, transient; captured from supernatant on Ni-NTA
Experimental: as §1, §2
as §3, with “min). Blotting to PVDF membranes (Invitrogen, Taastrup, Denmark) was done on an iBLOT device according to instructions of the manufacturer. After blotting the membranes were washed briefly in 1×PBS 0.1% Tween and blocked for 30 min in 1×PBS 2% Tween at room temperature with shaking.” for “min).”

T3 sequence (Q2VLH6 with tags, fused parts or gaps): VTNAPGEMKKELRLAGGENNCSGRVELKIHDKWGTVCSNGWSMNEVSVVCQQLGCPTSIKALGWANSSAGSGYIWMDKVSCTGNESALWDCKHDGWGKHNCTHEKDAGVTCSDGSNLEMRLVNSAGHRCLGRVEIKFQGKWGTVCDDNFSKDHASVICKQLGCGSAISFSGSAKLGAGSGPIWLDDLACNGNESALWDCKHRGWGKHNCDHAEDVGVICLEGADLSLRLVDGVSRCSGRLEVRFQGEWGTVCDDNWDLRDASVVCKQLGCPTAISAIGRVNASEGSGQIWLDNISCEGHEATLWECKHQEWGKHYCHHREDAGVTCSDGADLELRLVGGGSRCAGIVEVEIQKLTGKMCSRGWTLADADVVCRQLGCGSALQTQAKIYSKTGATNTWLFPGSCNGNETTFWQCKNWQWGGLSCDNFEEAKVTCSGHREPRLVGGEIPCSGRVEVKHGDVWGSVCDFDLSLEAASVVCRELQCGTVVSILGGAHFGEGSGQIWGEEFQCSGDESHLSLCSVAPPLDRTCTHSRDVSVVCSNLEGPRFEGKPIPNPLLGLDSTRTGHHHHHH
Chain of CD163 (Q86VB7 42-1156): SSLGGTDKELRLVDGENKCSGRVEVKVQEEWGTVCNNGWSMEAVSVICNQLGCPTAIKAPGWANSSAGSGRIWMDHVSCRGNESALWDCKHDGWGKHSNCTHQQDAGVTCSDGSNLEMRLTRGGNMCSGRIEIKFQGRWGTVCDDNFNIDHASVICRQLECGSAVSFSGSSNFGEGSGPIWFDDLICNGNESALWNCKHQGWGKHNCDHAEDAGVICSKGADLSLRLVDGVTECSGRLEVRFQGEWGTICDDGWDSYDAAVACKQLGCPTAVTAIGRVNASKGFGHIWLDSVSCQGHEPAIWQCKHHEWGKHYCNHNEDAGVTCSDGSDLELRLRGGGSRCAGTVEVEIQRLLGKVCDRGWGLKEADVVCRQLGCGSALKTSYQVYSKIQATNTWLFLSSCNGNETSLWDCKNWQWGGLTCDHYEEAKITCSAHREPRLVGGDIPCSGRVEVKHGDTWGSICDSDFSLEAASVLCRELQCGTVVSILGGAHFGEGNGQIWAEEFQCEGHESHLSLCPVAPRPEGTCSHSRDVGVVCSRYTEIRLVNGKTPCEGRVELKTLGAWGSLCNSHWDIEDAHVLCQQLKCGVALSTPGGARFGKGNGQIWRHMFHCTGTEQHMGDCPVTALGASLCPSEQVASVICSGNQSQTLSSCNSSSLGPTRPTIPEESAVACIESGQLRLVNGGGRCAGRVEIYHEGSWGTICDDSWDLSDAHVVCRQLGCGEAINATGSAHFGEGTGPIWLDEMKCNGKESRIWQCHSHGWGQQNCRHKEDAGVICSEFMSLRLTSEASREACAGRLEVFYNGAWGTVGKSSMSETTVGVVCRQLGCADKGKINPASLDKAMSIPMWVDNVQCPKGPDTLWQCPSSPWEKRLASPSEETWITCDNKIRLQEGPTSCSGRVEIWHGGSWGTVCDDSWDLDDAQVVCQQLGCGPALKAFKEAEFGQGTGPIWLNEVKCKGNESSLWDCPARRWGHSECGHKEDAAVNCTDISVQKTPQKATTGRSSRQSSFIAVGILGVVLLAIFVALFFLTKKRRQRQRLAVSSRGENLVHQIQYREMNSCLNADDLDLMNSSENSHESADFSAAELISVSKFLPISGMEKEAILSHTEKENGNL
T2 sequence (Q86VB7 42-1156): as above

B1: MAC2-158: anti-human CD163 murine mAb, binds SRCR domain 1, IQ Products; VH SEQ ID NO: 1, VL SEQ ID NO: 2 (antibody, V domains shown)
VH: DVQLQESGPGLVKPSQSLSLTCTVTGYSITSDYAWNWIRQFPGNKLEWMGYITYSGITNYNPSLKSQISITRDTSKNQFFLQLNSVTTEDTATYYCVSGTYYFDYWGQGTTLTVSS
VL: SVVMTQTPKSLLISIGDRVTITCKASQSVSSDVAWFQQKPGQSPKPLIYYASNRYTGVPDRFTGSGYGTDFTFTISSVQAEDLAVYFCGQDYTSPRTFGGGTKLEIKRA
modifications: Mac2-158 VH; Mac2-158 VL
[1]
  binding in western blot: did bind
CD163
  binding to CD163-Fc saturated with Mac2-158: not able to bind
Human CD163 wt
  binding in western blot: bound
Mouse CD163 1-5 wt
  binding in western blot: did not bind

— US20170119790A1, “Agents, Uses and Methods” (CYTOGUIDE A/S, priority 2009, published 2017)
